Measurements published in patent US20250041389A1, “ENHANCING ABSORPTION OF DIETARY COMPOUNDS TO PROMOTE HEALTH” (ARIZONA BOARD OF REGENTS ON BEHALF OF THE UNIVERSITY OF …, priority 2023, published 2025).

Tests used:
[1] = Enzymatic activity of orally administered enzyme after passage through proteolytic sections of the GI tract; assay type: in vivo; settings: oral administration
[2] = Oral gavage of GUSB followed by curcumin in mice; assay of curcumin metabolites in serum and bone; assay type: in vivo, C57BI6 mice; settings: after oral administration of GUSB with curcumin; FIG. 1
Text: Experimental Methods: Administer 140 U/g body weight of GUSB (E. coli-derived [Sigma G840]) orally via gavage (vs vehicle) to 10-week-old male C57BI6 mice.

B1: GUSB: Beta-glucuronidase enzyme; E. coli-derived [Sigma G840] in Example 1 (protein, UniProt P05804 1-603, looked up)
Beta-glucuronidase: MLRPVETPTREIKKLDGLWAFSLDRENCGIDQRWWESALQESRAIAVPGSFNDQFADADIRNYAGNVWYQREVFIPKGWAGQRIVLRFDAVTHYGKVWVNNQEVMEHQGGYTPFEADVTPYVIAGKSVRITVCVNNELNWQTIPPGMVITDENGKKKQSYFHDFFNYAGIHRSVMLYTTPNTWVDDITVVTHVAQDCNHASVDWQVVANGDVSVELRDADQQVVATGQGTSGTLQVVNPHLWQPGEGYLYELCVTAKSQTECDIYPLRVGIRSVAVKGEQFLINHKPFYFTGFGRHEDADLRGKGFDNVLMVHDHALMDWIGANSYRTSHYPYAEEMLDWADEHGIVVIDETAAVGFNLSLGIGFEAGNKPKELYSEEAVNGETQQAHLQAIKELIARDKNHPSVVMWSIANEPDTRPQGAREYFAPLAEATRKLDPTRPITCVNVMFCDAHTDTISDLFDVLCLNRYYGWYVQSGDLETAEKVLEKELLAWQEKLHQPIIITEYGVDTLAGLHSMYTDMWSEEYQCAWLDMYHRVFDRVSAVVGEQVWNFADFATSQGILRVGGNKKGIFTRDRKPKSAAFLLQKRWTGMNFGEKPQQGGKQ
What does the source list for B1?
enzymatic activity after passing through the proteolytic sections of the GI tract (stomach and duodenum) [1]: retain their enzymatic activity; enzyme levels in the body [2]: unchanged
